Experiments:
[1] = target: JR-FL gp120 ΔV1/ΔV2 (HIV-1 JR-FL); assay: ELISA, antigen-coated wells, mAb titrated; EC50 by nonlinear regression
[2] = target: WT JR-FL gp120 (HIV-1 JR-FL); assay: as above
[3] = target: HIV-1 Env of isolate MGRM-Chronic-B-023 (HIV-1); assay: cell-based or functional assay
[4] = target: HIV-1 Env of isolate 93UG077 (pseudovirus) (HIV-1); assay: cell-based or functional assay
[5] = target: HIV-1 Env of isolate SC422661.8 (HIV-1); assay: cell-based or functional assay
[6] = target: HIV-1 Env of isolate TRJ04551.58 (HIV-1); assay: cell-based or functional assay
[7] = target: HIV-1 Env of isolate MGRM-Chronic-B-017 (HIV-1); assay: cell-based or functional assay
[8] = target: HIV-1 Env of isolate JRCSF (HIV-1) (UniProt P20871); assay: cell-based or functional assay
[9] = target: HIV-1 Env of isolate 92WR021 (pseudovirus) (HIV-1); assay: cell-based or functional assay
[10] = target: HIV-1 Env of isolate MGRM-F1-012 (HIV-1); assay: cell-based or functional assay
[11] = target: HIV-1 Env of isolate SF162 (HIV-1) (UniProt P19550); assay: cell-based or functional assay
[12] = target: HIV-1 Env of isolate MGRM-A-010 (subtype A) (HIV-1); assay: cell-based or functional assay
[13] = target: HIV-1 Env of isolate MGRM-Chronic-B-018 (HIV-1); assay: cell-based or functional assay
[14] = target: HIV-1 Env of isolate 92WR024 (pseudovirus) (HIV-1); assay: cell-based or functional assay
[15] = target: HIV-1 Env of isolate MGRM-Chronic-B-010 (HIV-1); assay: cell-based or functional assay
[16] = target: HIV-1 Env of isolate MGRM-Chronic-B-020 (HIV-1); assay: cell-based or functional assay
[17] = target: HIV-1 Env of isolate MGRM-Chronic-B-012 (HIV-1); assay: cell-based or functional assay
[18] = target: HIV-1 Env of isolate MGRM-Chronic-B-024 (HIV-1); assay: cell-based or functional assay
[19] = target: HIV-1 Env of isolate 92UG031 (pseudovirus) (HIV-1); assay: cell-based or functional assay
[20] = target: HIV-1 Env of isolate NL43 (HIV-1); assay: cell-based or functional assay
[21] = target: HIV-1 Env of isolate 98IN022 (HIV-1); assay: cell-based or functional assay
[22] = target: HIV-1 Env of isolate 93MW959 (HIV-1); assay: cell-based or functional assay
[23] = target: HIV-1 Env of isolate 92WR020 (pseudovirus) (HIV-1); assay: cell-based or functional assay
[24] = target: HIV-1 Env of isolate TRO.11 (HIV-1); assay: cell-based or functional assay
[25] = target: HIV-1 Env of isolate VLGCB3 (HIV-1); assay: cell-based or functional assay
[26] = target: HIV-1 Env of isolate 92UG037 (pseudovirus) (HIV-1); assay: cell-based or functional assay
[27] = target: HIV-1 Env of isolate MGRM-Chronic-B-011 (HIV-1); assay: cell-based or functional assay
[28] = target: HIV-1 Env of isolate 97ZA012 (HIV-1); assay: cell-based or functional assay
[29] = target: HIV-1 Env of isolate MGRM-AE-006 (subtype AE) (HIV-1); assay: cell-based or functional assay
[30] = target: HIV-1 Env of isolate THR0.18 (HIV-1); assay: cell-based or functional assay
[31] = target: HIV-1 Env of isolate 94UG103 (pseudovirus) (HIV-1); assay: cell-based or functional assay
[32] = target: HIV-1 Env of isolate 93WR029 (pseudovirus) (HIV-1); assay: cell-based or functional assay
[33] = target: HIV-1 Env of isolate 93IN905 (HIV-1); assay: cell-based or functional assay
[34] = target: HIV-1 Env of isolate QH0692.42 (HIV-1); assay: cell-based or functional assay
[35] = target: HIV-1 Env of isolate PVO.4 (HIV-1); assay: cell-based or functional assay
[36] = target: HIV-1 92RW020 Env (HIV-1); assay: cell-based or functional assay
[37] = target: HIV-1 Env of isolate MGRM-C-026 (subtype C), on pseudovirus (HIV-1); assay: cell-based or functional assay
[38] = target: HIV-1 Env of isolate MGRM-G-024 (subtype G) (HIV-1); assay: cell-based or functional assay
[39] = target: HIV-1 Env of isolate MGRM-AE-005 (pseudovirus) (HIV-1); assay: cell-based or functional assay
[40] = target: HIV-1 Env of isolate MGRM-AE-006 (pseudovirus) (HIV-1); assay: cell-based or functional assay
[41] = target: HIV-1 Env of isolate MGRM-AE-004 (pseudovirus) (HIV-1); assay: cell-based or functional assay
[42] = target: HIV-1 JR-CSF Env K421A (HIV-1 (isolate JR-CSF)) (UniProt P20871); assay: cell-based or functional assay

5345_I01 (PGT-137) (antibody)
EC50 [1]: 0.2 µg/mL | EC50 [2]: 0.1 µg/mL | IC50 (µg/mL), pseudovirus neutralization [3]: > 50 µg/mL | IC50 (µg/mL), pseudovirus neutralization [4]: > 50 µg/mL | IC50 (µg/mL), pseudovirus neutralization [5]: > 50 µg/mL | IC50 (µg/mL), pseudovirus neutralization [6]: > 50 µg/mL | IC50 (µg/mL), pseudovirus neutralization [7]: > 50 µg/mL | IC50 (µg/mL), pseudovirus neutralization [8]: > 50 µg/mL | IC50 (µg/mL), pseudovirus neutralization [9]: 3.52 µg/mL | IC50 (µg/mL), pseudovirus neutralization [10]: > 50 µg/mL | IC50 (µg/mL), pseudovirus neutralization [11]: 3.41 µg/mL | IC50, pseudovirus neutralization [12]: > 50 µg/mL | IC50 (µg/mL), pseudovirus neutralization [13]: > 50 µg/mL | IC50 (µg/mL), pseudovirus neutralization [14]: > 50 µg/mL | IC50 (µg/mL), pseudovirus neutralization [15]: > 50 µg/mL | IC50 (µg/mL), pseudovirus neutralization [16]: 32.9 µg/mL | IC50 (µg/mL), pseudovirus neutralization [17]: > 50 µg/mL | IC50 (µg/mL), pseudovirus neutralization [18]: > 50 µg/mL | IC50 (µg/mL), pseudovirus neutralization [19]: > 50 µg/mL | IC50 (µg/mL), pseudovirus neutralization [20]: 17.4 µg/mL | IC50 (µg/mL), pseudovirus neutralization [21]: 0.408 µg/mL | IC50 (µg/mL), pseudovirus neutralization [22]: > 50 µg/mL | IC50 (µg/mL), pseudovirus neutralization [23]: 0.005 µg/mL | IC50 (µg/mL), pseudovirus neutralization [24]: 9.35 µg/mL | IC50 (µg/mL), pseudovirus neutralization [25]: 3.36 µg/mL | IC50 (µg/mL), pseudovirus neutralization [26]: > 50 µg/mL | IC50 (µg/mL), pseudovirus neutralization [27]: > 50 µg/mL | IC50 (µg/mL), pseudovirus neutralization [28]: > 50 µg/mL | IC50, pseudovirus neutralization [29]: > 50 µg/mL | IC50 (µg/mL), pseudovirus neutralization [30]: > 50 µg/mL | IC50 (µg/mL), pseudovirus neutralization [31]: > 50 µg/mL | IC50 (µg/mL), pseudovirus neutralization [32]: > 50 µg/mL | IC50 (µg/mL), pseudovirus neutralization [33]: 0.042 µg/mL | IC50 (µg/mL), pseudovirus neutralization [34]: > 50 µg/mL

5329_C19 (PGT-136) (antibody)
EC50 [1]: 0.3 µg/mL | EC50 [2]: 0.2 µg/mL | IC50 (µg/mL), pseudovirus neutralization [3]: > 50 µg/mL | IC50 (µg/mL), pseudovirus neutralization [4]: > 50 µg/mL | IC50 (µg/mL), pseudovirus neutralization [5]: > 50 µg/mL | IC50 (µg/mL), pseudovirus neutralization [35]: > 50 µg/mL | IC50 (µg/mL), pseudovirus neutralization [6]: > 50 µg/mL | IC50 (µg/mL), pseudovirus neutralization [7]: > 50 µg/mL | IC50 (µg/mL), pseudovirus neutralization [8]: > 50 µg/mL | IC50, pseudovirus neutralization [36]: 0.738 µg/mL | IC50 (µg/mL), pseudovirus neutralization [9]: > 50 µg/mL | IC50 (µg/mL), pseudovirus neutralization [10]: > 50 µg/mL | IC50 (µg/mL), pseudovirus neutralization [11]: 0.482 µg/mL | IC50, pseudovirus neutralization [12]: > 50 µg/mL | IC50 (µg/mL), pseudovirus neutralization [13]: > 50 µg/mL | IC50 (µg/mL), pseudovirus neutralization [14]: > 50 µg/mL | IC50 (µg/mL), pseudovirus neutralization [15]: > 50 µg/mL | IC50 (µg/mL), pseudovirus neutralization [16]: > 50 µg/mL | IC50 (µg/mL), pseudovirus neutralization [17]: 43.1 µg/mL | IC50 (µg/mL), pseudovirus neutralization [18]: > 50 µg/mL | IC50 (µg/mL), pseudovirus neutralization [19]: > 50 µg/mL | IC50 (µg/mL), pseudovirus neutralization [20]: 27.7 µg/mL | IC50 (µg/mL), pseudovirus neutralization [21]: 13.6 µg/mL | IC50 (µg/mL), pseudovirus neutralization [22]: > 50 µg/mL | IC50 (µg/mL), pseudovirus neutralization [23]: 2.33 µg/mL | IC50 (µg/mL), pseudovirus neutralization [24]: 0.073 µg/mL | IC50 (µg/mL), pseudovirus neutralization [25]: > 50 µg/mL | IC50 (µg/mL), pseudovirus neutralization [26]: > 50 µg/mL | IC50 (µg/mL), pseudovirus neutralization [27]: > 50 µg/mL | IC50 (µg/mL), pseudovirus neutralization [28]: > 50 µg/mL | IC50, pseudovirus neutralization [29]: > 50 µg/mL | IC50 (µg/mL), pseudovirus neutralization [30]: > 50 µg/mL | IC50 (µg/mL), pseudovirus neutralization [31]: > 50 µg/mL | IC50 (µg/mL), pseudovirus neutralization [32]: > 50 µg/mL | IC50 (µg/mL), pseudovirus neutralization [33]: 0.011 µg/mL | IC50 (µg/mL), pseudovirus neutralization [34]: > 50 µg/mL

4993_K13 (PGT-141) (antibody)
IC50 (µg/mL), single-round pseudovirus neutralization [4]: > 50 µg/mL | IC50, single-round pseudovirus neutralization [37]: > 50 µg/mL | IC50 (µg/mL), pseudovirus neutralization [38]: 0.051 µg/mL | IC50, pseudovirus neutralization [36]: > 10 µg/mL | IC50 (µg/mL), single-round pseudovirus neutralization [9]: > 50 µg/mL | IC50 (µg/mL), single-round pseudovirus neutralization [14]: 0.175 µg/mL | IC50 (µg/mL), single-round pseudovirus neutralization [19]: 0.093 µg/mL | IC50 (µg/mL), single-round pseudovirus neutralization [23]: > 50 µg/mL | IC50 (µg/mL), single-round pseudovirus neutralization [39]: > 50 µg/mL | IC50 (µg/mL), single-round pseudovirus neutralization [40]: > 50 µg/mL | IC50 (µg/mL), single-round pseudovirus neutralization [26]: 1.28 µg/mL | IC50 (µg/mL), single-round pseudovirus neutralization [41]: > 50 µg/mL | IC50 (µg/mL), single-round pseudovirus neutralization [31]: > 50 µg/mL | IC50 (µg/mL), single-round pseudovirus neutralization [32]: 0.019 µg/mL

5343_B08 (PGT-135) (antibody)
EC50 [1]: 0.1 µg/mL | EC50 [2]: 0.1 µg/mL | IC50 (µg/mL), pseudovirus neutralization [3]: 0.329 µg/mL | IC50 (µg/mL), pseudovirus neutralization [4]: > 50 µg/mL | IC50 (µg/mL), pseudovirus neutralization [5]: 21.8 µg/mL | IC50 (µg/mL), pseudovirus neutralization [35]: > 50 µg/mL | IC50 (µg/mL), pseudovirus neutralization [6]: > 50 µg/mL | IC50 (µg/mL), pseudovirus neutralization [7]: > 50 µg/mL | IC50 (µg/mL), pseudovirus neutralization [8]: 0.131 µg/mL | IC50, pseudovirus neutralization [36]: 0.157 µg/mL | Fold IC50 increase relative to wild-type (pseudovirus neutralization) [42]: 0.3 fold | IC50 (µg/mL), pseudovirus neutralization [9]: > 50 µg/mL | IC50 (µg/mL), pseudovirus neutralization [10]: 0.01 µg/mL | IC50 (µg/mL), pseudovirus neutralization [11]: 0.023 µg/mL | IC50, pseudovirus neutralization [12]: > 50 µg/mL | IC50 (µg/mL), pseudovirus neutralization [13]: > 50 µg/mL | IC50 (µg/mL), pseudovirus neutralization [14]: > 50 µg/mL | IC50 (µg/mL), pseudovirus neutralization [15]: > 50 µg/mL | IC50 (µg/mL), pseudovirus neutralization [16]: 0.057 µg/mL | IC50 (µg/mL), pseudovirus neutralization [17]: 0.166 µg/mL | IC50 (µg/mL), pseudovirus neutralization [18]: > 50 µg/mL | IC50 (µg/mL), pseudovirus neutralization [19]: > 50 µg/mL | IC50 (µg/mL), pseudovirus neutralization [20]: 8.03 µg/mL | IC50 (µg/mL), pseudovirus neutralization [21]: 0.014 µg/mL | IC50 (µg/mL), pseudovirus neutralization [22]: > 50 µg/mL | IC50 (µg/mL), pseudovirus neutralization [23]: 0.067 µg/mL | IC50 (µg/mL), pseudovirus neutralization [24]: 0.03 µg/mL | IC50 (µg/mL), pseudovirus neutralization [25]: 0.142 µg/mL | IC50 (µg/mL), pseudovirus neutralization [26]: 3.67 µg/mL | IC50 (µg/mL), pseudovirus neutralization [27]: > 50 µg/mL | IC50 (µg/mL), pseudovirus neutralization [28]: > 50 µg/mL | IC50, pseudovirus neutralization [29]: > 50 µg/mL | IC50 (µg/mL), pseudovirus neutralization [30]: > 50 µg/mL | IC50 (µg/mL), pseudovirus neutralization [31]: > 50 µg/mL | IC50 (µg/mL), pseudovirus neutralization [32]: > 50 µg/mL | IC50 (µg/mL), pseudovirus neutralization [33]: 0.011 µg/mL | IC50 (µg/mL), pseudovirus neutralization [34]: > 50 µg/mL
